Reference: the Human Domainome abundance scans (Beltran et al. 2025)
± gives the uncertainty stated by the source.

B1: 1-phosphatidylinositol 4,5-bisphosphate phosphodiesterase gamma-2, residues 772 to 827; numbered along this chain, P16885 (parent)
chain: RTVKALYDYKAKRSDELSFCRGALIHNVSKEPGGWWKGDYGTRIQQYFPSNYVEDI

Variants of: B1
Assay: abundance fitness (aPCA) (normalised: wild type 0, dead -1); higher = more abundant; growth selection in yeast, the domain comes from the species named
Conditions: Homo sapiens

Abundance fitness, by site and new letter:
T2: H -0.603 ± 0.12, I -0.111 ± 0.16, K -0.207 ± 0.068, L -0.315 ± 0.1, M -0.241 ± 0.15, N -0.587 ± 0.15, Q -0.094 ± 0.11, S -0.089 ± 0.085, V 0.037 ± 0.06, W -0.883 ± 0.29, Y -0.177 ± 0.4
V3: C -0.267 ± 0.38, I -0.689 ± 0.26, M -0.017 ± 0.1
K4: A -0.259 ± 0.084, C -0.068 ± 0.11, D -0.809 ± 0.47, E -0.216 ± 0.06, F -0.393 ± 0.16, G -0.782 ± 0.11, I 0.049 ± 0.14, M -0.127 ± 0.11, Q -0.148 ± 0.15, R -0.205 ± 0.053, S -0.514 ± 0.13, T -0.288 ± 0.13, V 0.055 ± 0.07, W -0.375 ± 0.16, Y 0.019 ± 0.15
A5: E -0.908 ± 0.12, F -0.895 ± 0.07, G -0.868 ± 0.13, H -0.976 ± 0.084, I -0.903 ± 0.072, K -0.998 ± 0.13, L -0.999 ± 0.066, M -0.942 ± 0.082, N -0.964 ± 0.099, P -0.95 ± 0.07, Q -0.865 ± 0.15, R -0.896 ± 0.089, S -0.503 ± 0.042, V -0.965 ± 0.12, W -0.955 ± 0.19
L6: A -0.195 ± 0.055, C -0.406 ± 0.16, D -0.577 ± 0.22, E -0.631 ± 0.12, F -0.456 ± 0.35, G -0.721 ± 0.078, H -0.834 ± 0.16, I 0.09 ± 0.16, K 0.01 ± 0.1, N -0.257 ± 0.088, P -0.691 ± 0.18, Q -0.485 ± 0.087, R -0.177 ± 0.074, T -0.161 ± 0.14, V -0.356 ± 0.075, W -0.935 ± 0.47
Y7: A 0.01 ± 0.066, C -0.118 ± 0.14, D -0.282 ± 0.31, E -0.117 ± 0.093, F 0.126 ± 0.1, G -0.35 ± 0.051, H -0.015 ± 0.45, I -0.165 ± 0.41, K 0.158 ± 0.078, L -0.077 ± 0.074, M -0.059 ± 0.079, N -0.375 ± 0.29, Q 0.2 ± 0.093, R 0.169 ± 0.073, S -0.109 ± 0.078, T -0.267 ± 0.1, V -0.2 ± 0.065
D8: A 0.068 ± 0.09, C -0.105 ± 0.074, E -0.17 ± 0.09, F -0.382 ± 0.24, G -0.083 ± 0.072, M -0.579 ± 0.13, N -0.059 ± 0.054, R -0.452 ± 0.059, S -0.059 ± 0.076, T 0.078 ± 0.095, V -0.982 ± 0.2, W -0.634 ± 0.18, Y -0.576 ± 0.1
Y9: C 0.089 ± 0.17, E -0.868 ± 0.31, G -0.949 ± 0.11, H -0.164 ± 0.26, K -0.816 ± 0.25, L -0.923 ± 0.19, P -0.734 ± 0.3, R -0.685 ± 0.098, S -0.939 ± 0.27, T -0.931 ± 0.24, V -1.07 ± 0.33, W -0.223 ± 0.098
K10: A -0.319 ± 0.12, C -0.034 ± 0.055, D 0.052 ± 0.1, E -0.104 ± 0.11, F -0.333 ± 0.25, G -0.373 ± 0.054, I -0.336 ± 0.32, L -0.399 ± 0.062, M -0.356 ± 0.12, N -0.042 ± 0.33, P -0.502 ± 0.12, Q -0.002 ± 0.096, R -0.033 ± 0.079, S -0.008 ± 0.084, T -0.025 ± 0.097, V 0.103 ± 0.082, W -0.319 ± 0.054, Y -0.106 ± 0.27
A11: C -0.819 ± 0.11, E -0.775 ± 0.25, L -1.05 ± 0.14, N -0.378 ± 0.17, P -0.446 ± 0.27, Q -0.176 ± 0.19, R -0.683 ± 0.083, S -0.39 ± 0.11, T -0.461 ± 0.092, V -0.972 ± 0.065, W -0.989 ± 0.21
K12: A -0.16 ± 0.078, C -0.705 ± 0.15, D -0.239 ± 0.1, E -0.206 ± 0.18, F -0.63 ± 0.15, G -0.182 ± 0.063, H 0.113 ± 0.13, I -0.405 ± 0.13, L -0.177 ± 0.067, M -0.004 ± 0.068, N -0.181 ± 0.1, P -0.93 ± 0.18, Q -0.077 ± 0.052, R -0.092 ± 0.068, S -0.263 ± 0.068, T -0.097 ± 0.052, V -0.217 ± 0.086, W -0.369 ± 0.24, Y -0.48 ± 0.12
R13: C -0.212 ± 0.13, D -0.281 ± 0.14, E -0.306 ± 0.23, F -0.007 ± 0.12, G -0.316 ± 0.083, H -0.26 ± 0.16, K -0.267 ± 0.21, L -0.645 ± 0.12, M -0.021 ± 0.081, Q -0.301 ± 0.18, S -0.056 ± 0.057, T -0.368 ± 0.27, V -0.47 ± 0.13, W -0.846 ± 0.36, Y -0.1 ± 0.11
S14: A 0.038 ± 0.078, C -0.124 ± 0.14
